Measurements taken from patent US11015206B2, “Compositions and methods comprising sequences having hydroxyphenylpyruvate dioxygenase (HPPD) activity” (PIONEER HI-BRED INTERNATIONAL, INC., priority 2014, dated 2021).

B1: P056028-A-03 (protein)
chain: MGPTPTATAAGAAVAAASAAEQAAFRLVGHRNFVRFNPRSDRFQTLAFHHVELWCADAASAAGRFSFALGVPLAARSDLSTGNSAHASLLLRSGSLSLLFTAPYAHGADAATAALPSFSAAAARRFAADHGLAVRAVALRVADAEDAFRASVAAGARPAFGPVDLGRGFRLAEVELYGDVVLRYVSYPDGGAGEPFLPGFEGVASPGAADLGLSRFDHIVGNVPELAPAAAYMAGFTGFHEFAEFTTEDVGTTESGLNSMALANNSENVLLPLNEPVHGTKRRSQIQTFLDHHGGPGVQHIALASDDVLRTLREMRARSAMGGFEFLPPPLSDYYDGVRRCAGDVLTEAQINECQELGVMVDRDDEGVLLQIFTKPVGDRPTFFLEIIQRIGCMEKDEKGQEYQKGGCGGFGKGNFGQLFKSIEDYEKSLERKRAAAAATAQGS
modifications: Zea mays variant form created by artificial means.
B2: P056028-D-03 (protein)
chain: MGPTPTATAAGAAVAAASAAEQAAFRLVGHRNFVRFNPRSDRFQTLAFHHVELWCADAASAAGRFSFALGVPLAARSDLSTGNSAHASLLLRSGSLSLLFTAPYAHGADAATAALPSFSAAAARRFAADHGLAVRAVALRVADAEDAFRASVAAGARPAFGPVDLGRGFRLAEVELYGDVVMRYVSYPDGAAGEPFLPGFEGVASPGAADYGLNRFDHIVGNVPELAPAAAYMAGFTGFHEFAEFTTEDVGTTESGLNSMALANNSENVLLPLNEPVHGTKRRSQIQTFLDHHGGPGVQHIALASDDVLRTLREMRARSAMGGFEFLPPPLSDYYDGVRRCAGDVLTEAQINECQELGVMVDRDDEGVLLQIFTKPVGDRPTFFLEIIQRIGCMEKDEKGQEYQKGGCGGFGKGNFGQLFKSIEDYEKSLEAKQAAAAATAQGS
modifications: Zea mays variant form created by artificial means.
B3: P056028-B-09 (protein)
chain: MGPTPTATAAGAAVAAASAAEQAAFRLVGHRNFVRFNPRSDRFQTLAFHHVELWCADAASAAGRFSFALGVPLAARSDLSTGNSAHASLLLRSGSLSLLFTAPYAHGADAATAALPSFSAAAARRFAADHGLAVRAVALRVADAEDAFRASVAAGARPAFGPVDLGRGFRLAEVELYGDVVLRYVSYPDGAAGEPFLPGFEGVASPGAADYGLSRFDHIVGNVPELAPAAAYMAGFTGFHEFAEFTTEDVGTTESGLNSMALANNSENVLLPLNEPVHGTKRRSQIQTFLDHHGGPGVQHIALASDDVLRTLREMRARSAMGGFEFLPPPLSDYYDDVRRCAGDVLTEAQINECQELGVMVDRDDEGVLLQIFTKPVGDRPTFFLEIIQRIGCVEKDEKGQEYQKGGCGGFGKGNFGQLFKSIEDYEKSLEAKRAAAAATAQGS
modifications: Zea mays variant form created by artificial means.
B4: 9070Q366E (protein)
chain: MGPTPTATAAGAAVAAASAAEQAAFRLVGHRNFVRFNPRSDRFQTLAFHHVELWCADAASAAGRFSFALGVPLAARSDLSTGNSAHASLLLRSGSLSLLFTAPYAHGADAATAALPSFSAAAARRFAADHGLAVRAVALRVADAEDAFRASVAAGARPAFGPVDLGRGFRLAEVELYGDVVLRYVSYPDGAAGEPFLPGFEGVASPGAADYGLSRFDHIVGNVPELAPAAAYMAGFTGFHEFAEFTTEDVGTTESGLNSMALANNSENVLLPLNEPVHGTKRRSQIQTFLDHHGGPGVQHIALASDDVLRTLREMRARSAMGGFEFLPPPLSDYYDGVRRCAGDVLTEAQINECQELGVMVDRDDEGVLLQIFTKPVGDRPTFFLEIIQRIGCMEKDEKGQEYQKGGCGGFGKGNFGQLFKSIEDYEKSLEAKQAAAAATAQGS
modifications: Zea mays variant form created by artificial means.

Tests used:
Assay type in all cases: biochemical, Z. mays
[1] = system: 4-hydroxyphenylpyruvate dioxygenase (HPPD); assay: OFF rate ratio: release of inhibitor from pre-formed enzyme-inhibitor complex; conditions: for OFF rate ratio: Table 7, tembotrione, combinatorial variants; for Insensitivity, isoxaflutole (DKN), Rate ratio OFF: inhibitor diketonitrile form of isoxaflutole (DKN); for Insensitivity, mesotrione, Rate ratio OFF: inhibitor mesotrione; for Insensitivity, sulcotrione, Rate ratio OFF: inhibitor sulcotrione; for Insensitivity, tembotrione, Rate ratio OFF: inhibitor tembotrione; for Insensitivity, topramezone, Rate ratio OFF: inhibitor topramezone
Method in brief: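 Inhibitor release from pre-formed complex (enzyme 7.2 μM, inhibitor 8 μM, 1 h RT) tracked as accelerating HPPD activity at 320 nm over 12 min, coupled via 50 nM HGD with 100 μM HPP at pH 7. OFF rate ratio: steady-state velocity relative to uninhibited initial velocity.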

[2] = system: 4-hydroxyphenylpyruvate dioxygenase (HPPD); assay: Estimate of kcat from initial rate at saturating hydroxyphenylpyruvate without inhibitor (ON rate ratio assay)
Method in brief: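 kcat was estimated from the initial reaction rate with known enzyme level (60 or 120 nM HPPD). Hydroxyphenylpyruvate was at a saturating 100 μM, with no inhibitor present.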

[3] = system: 4-hydroxyphenylpyruvate dioxygenase (HPPD); assay: Insensitivity parameter (ON × OFF) and trait fitness (ON × OFF × kcat/KM or × kcat); parameters: key to ON × OFF / Insensitivity, mesotrione, ON × OFF / Insensitivity, tembotrione, ON × OFF / Insensitivity, topramezone, ON × OFF / Insensitivity, sulcotrione, ON × OFF / Insensitivity, isoxaflutole (DKN), ON × OFF: insensitivity = ON rate ratio × OFF rate ratio (surrogate for KD); conditions: for Insensitivity, isoxaflutole (DKN), ON × OFF / Insensitivity, isoxaflutole (DKN), Trait fitness: inhibitor diketonitrile form of isoxaflutole (DKN); for Insensitivity, mesotrione, ON × OFF / Insensitivity, mesotrione, Trait Fitness: inhibitor mesotrione; for Insensitivity, sulcotrione, ON × OFF / Insensitivity, sulcotrione, Trait fitness: inhibitor sulcotrione; for Insensitivity, tembotrione, ON × OFF / Insensitivity, tembotrione, Trait fitness: inhibitor tembotrione; for Insensitivity, topramezone, ON × OFF / Insensitivity, topramezone, Trait Fitness: inhibitor topramezone
Method in brief: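 Trait fitness combines catalysis and insensitivity as kcat/KM × ON rate ratio × OFF rate ratio. The insensitivity parameter is the product of ON and OFF rate ratios, used in place of KD because the ON rate ratio is inverse.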

[4] = system: 4-hydroxyphenylpyruvate dioxygenase (HPPD); assay: ON rate ratio: HPPD reaction rate with vs without inhibitor in the 70 to 90 second interval; conditions: for ON rate ratio: Table 7, tembotrione, combinatorial variants; for Insensitivity, isoxaflutole (DKN), Rate ratio ON: inhibitor diketonitrile form of isoxaflutole (DKN); for Insensitivity, mesotrione, Rate ratio ON: inhibitor mesotrione; for Insensitivity, sulcotrione, Rate ratio ON: inhibitor sulcotrione; for Insensitivity, tembotrione, Rate ratio ON: inhibitor tembotrione; for Insensitivity, topramezone, Rate ratio ON: inhibitor topramezone
Method in brief: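 Indicator of inhibitor on-rate: reaction velocity in the 70 to 90 second window with 4 μM inhibitor divided by that without. Reactions contained 100 μM HPP and 60 or 120 nM HPPD; slower binding gives a larger ratio.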

[5] = Table 7, combinatorial variants
[6] = Table 7, tembotrione, combinatorial variants

Molecule | OFF rate ratio [1] | Insensitivity, isoxaflutole (DKN), Rate ratio OFF [1] | Insensitivity, mesotrione, Rate ratio OFF [1] | Insensitivity, sulcotrione, Rate ratio OFF [1] | Insensitivity, tembotrione, Rate ratio OFF [1] | Insensitivity, topramezone, Rate ratio OFF [1] | kcat ([2]; Megatable 3, shuffled variants) [s⁻¹] | kcat [2, 5] [s⁻¹] | ON × OFF ([3]; Megatable 3, shuffled variants) | ON × OFF × kcat ([3]; Megatable 3, shuffled variants) | ON × OFF [3, 6] | ON × OFF × kcat [3, 6] | Insensitivity, isoxaflutole (DKN), ON × OFF [3] | Insensitivity, isoxaflutole (DKN), Trait fitness [3] | Insensitivity, mesotrione, ON × OFF [3] | Insensitivity, mesotrione, Trait Fitness [3] | Insensitivity, sulcotrione, ON × OFF [3] | Insensitivity, sulcotrione, Trait fitness [3] | Insensitivity, tembotrione, ON × OFF [3] | Insensitivity, tembotrione, Trait fitness [3] | also measured
B1 | 0.243 | 0.43 | 1.00 | 0.93 | 0.40 | 0.47 | 0.4 | 0.4 | 0.181 | 4.36 | 0.181 | 4.36 | 0.34 | 7.25 | 0.70 | 14.8 | 0.75 | 15.7 | 0.32 | 6.81 | Insensitivity, topramezone, ON × OFF [3]: 0.38; Insensitivity, topramezone, Trait Fitness [3]: 7.97; ON rate ratio [4]: 0.748; Insensitivity, isoxaflutole (DKN), Rate ratio ON [4]: 0.81; Insensitivity, mesotrione, Rate ratio ON [4]: 0.70; Insensitivity, sulcotrione, Rate ratio ON [4]: 0.80; Insensitivity, tembotrione, Rate ratio ON [4]: 0.80; Insensitivity, topramezone, Rate ratio ON [4]: 0.81
B2 | 0.453 | 0.40 | 1.00 | 1.11 | 0.45 | 0.58 | 0.327 | 0.327 | 0.349 | 6.83 | 0.349 | 6.83 | 0.31 | 6.51 | 0.68 | 14.5 | 0.84 | 17.9 | 0.35 | 7.44 | Insensitivity, topramezone, ON × OFF [3]: 0.46; Insensitivity, topramezone, Trait Fitness [3]: 9.88; ON rate ratio [4]: 0.770; Insensitivity, isoxaflutole (DKN), Rate ratio ON [4]: 0.76; Insensitivity, mesotrione, Rate ratio ON [4]: 0.68; Insensitivity, sulcotrione, Rate ratio ON [4]: 0.76; Insensitivity, tembotrione, Rate ratio ON [4]: 0.77; Insensitivity, topramezone, Rate ratio ON [4]: 0.80
B3 | 0.187 | 0.33 | 1.00 | 0.88 | 0.35 | 0.48 | 0.575 | 0.575 | 0.121 | 4.19 | 0.121 | 4.19 | 0.25 | 7.93 | 0.67 | 21.2 | 0.68 | 21.6 | 0.26 | 8.28 | Insensitivity, topramezone, ON × OFF [3]: 0.38; Insensitivity, topramezone, Trait Fitness [3]: 12.12; ON rate ratio [4]: 0.648; Insensitivity, isoxaflutole (DKN), Rate ratio ON [4]: 0.77; Insensitivity, mesotrione, Rate ratio ON [4]: 0.67; Insensitivity, sulcotrione, Rate ratio ON [4]: 0.78; Insensitivity, tembotrione, Rate ratio ON [4]: 0.75; Insensitivity, topramezone, Rate ratio ON [4]: 0.80
B4 | 0.273 | 0.39 | 1.00 | 1.13 | 0.33 | 0.57 | 0.335 | 0.335 | 0.208 | 4.18 | 0.208 | 4.18 | 0.17 | 3.40 | 0.72 | 14.0 | 0.50 | 9.69 | 0.27 | 5.25 | Insensitivity, topramezone, ON × OFF [3]: 0.26; Insensitivity, topramezone, Trait Fitness [3]: 5.04; ON rate ratio [4]: 0.760; Insensitivity, isoxaflutole (DKN), Rate ratio ON [4]: 0.83; Insensitivity, mesotrione, Rate ratio ON [4]: 0.72; Insensitivity, sulcotrione, Rate ratio ON [4]: 0.80; Insensitivity, tembotrione, Rate ratio ON [4]: 0.82; Insensitivity, topramezone, Rate ratio ON [4]: 0.81
